Experimental data: PMC6195595, “Structure-based redesign of docking domain interactions modulates the product spectrum of a rhabdopeptide-synthesizing NRPS” (Nature Communications, 2018)

B3: Kj12C N-terminal docking domain (domain or fragment)
chain: MIDAAQIVDEALEQGITLFVVNNRLQYETSRDSIPTELLNKWKQHKQELIDFLNQLDSEEQTK
notes: Kj12C of Xenorhabdus stockiae KJ12.1, N-terminal docking domain, 63 residues; 15N-labelled for the NMR titrations; also called Kj12C-NDD; source: E. coli BL21-Gold(DE3), purified (HisTrap, Ulp1 cleavage, anion exchange, SEC); not shown: His6-SUMO, N-terminal, cleaved

Tests used:
Experiment in all cases: ITC; 50 µM NDD (or Kj12C construct) in the cell titrated with 1 mM CDD peptide; 20 °C; 50 mM sodium phosphate pH 6.5, 100 mM NaCl; one site binding model; three independent titrations
Conditions in all cases: both partners purified
[1] = biological target: B3
[2] = biological target: B3
[3] = biological target: T1, Kj12B-CDDshort R1565E peptide (Xenorhabdus stockiae KJ12.1, R1565E (stands in the printed letters))
T1 construct: source: synthetic peptide (Fmoc solid-phase synthesis, preparative HPLC)

[4] = biological target: T2, Kj12A N-terminal docking domain (Xenorhabdus stockiae KJ12.1)
T2 construct: also called Kj12A-NDD; source: E. coli BL21-Gold(DE3), purified (HisTrap, Ulp1 cleavage, anion exchange, SEC)
T2 chain: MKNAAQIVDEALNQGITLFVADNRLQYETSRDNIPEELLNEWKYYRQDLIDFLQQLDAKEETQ

[5] = biological target: T3, Kj12B N-terminal docking domain (Xenorhabdus stockiae KJ12.1)
T3 construct: also called Kj12B-NDD; source: E. coli BL21-Gold(DE3), purified (HisTrap, Ulp1 cleavage, anion exchange, SEC)
T3 chain: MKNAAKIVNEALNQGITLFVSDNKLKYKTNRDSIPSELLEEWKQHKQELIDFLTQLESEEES

B1: Kj12B-CDDshort peptide (peptide)
peptide: QEYLRGEI
notes: source: synthetic peptide (Fmoc solid-phase synthesis, preparative HPLC)
[1]
  stoichiometry N: 1.05 ± 0.11 sites

B2: Kj12B-CDDshort G1566A peptide (peptide)
peptide: QEYLRAEI
notes: as for B1
[2]
  Kd: > 100 µM

## B3
[3]
  Kd: > 100 µM

B4: Kj12B-CDDshort L1564A peptide (peptide)
peptide: QEYARGEI
notes: as for B1
[2]
  Kd: > 100 µM

B5: Kj12B C-terminal docking domain peptide (peptide)
peptide: LLKEKRKHFQAEQNSSQEYLRGEI
notes: also called Kj12B-CDD; source: synthetic peptide, bought: JPT Peptides Technologies GmbH
[4]
  stoichiometry N: 0.81 ± 0.01 sites
[1]
  stoichiometry N: 0.9 ± 0.12 sites
[5]
  stoichiometry N: 1 sites
